Earlier results as cited in publication PMC4067134.

Assays:
[1] = target: integrin αIIbβ3 (Homo sapiens) (UniProt P08514)
[2] = target: integrin β3 (Homo sapiens) (UniProt P05106)
Sequence of UniProt P05106 (P05106 27-718): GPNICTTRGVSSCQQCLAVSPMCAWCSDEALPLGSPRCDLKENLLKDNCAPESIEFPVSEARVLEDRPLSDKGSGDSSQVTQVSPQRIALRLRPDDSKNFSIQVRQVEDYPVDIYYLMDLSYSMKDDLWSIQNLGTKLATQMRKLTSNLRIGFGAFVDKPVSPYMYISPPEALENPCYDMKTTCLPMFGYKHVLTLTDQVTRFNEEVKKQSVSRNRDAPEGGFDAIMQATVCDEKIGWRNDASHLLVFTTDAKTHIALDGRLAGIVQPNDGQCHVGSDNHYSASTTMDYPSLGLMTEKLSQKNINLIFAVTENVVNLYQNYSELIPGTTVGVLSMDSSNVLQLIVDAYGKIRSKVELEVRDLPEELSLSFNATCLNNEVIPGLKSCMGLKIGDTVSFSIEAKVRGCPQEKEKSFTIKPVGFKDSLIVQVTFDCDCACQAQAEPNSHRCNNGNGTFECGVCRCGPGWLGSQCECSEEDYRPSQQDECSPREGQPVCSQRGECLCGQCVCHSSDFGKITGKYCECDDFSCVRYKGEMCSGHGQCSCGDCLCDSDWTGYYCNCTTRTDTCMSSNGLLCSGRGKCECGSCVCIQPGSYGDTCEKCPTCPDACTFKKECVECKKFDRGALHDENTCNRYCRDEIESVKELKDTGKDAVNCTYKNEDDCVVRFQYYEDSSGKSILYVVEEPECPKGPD

For ERp5 (from UniProt Q15084), which Kd [1] is on record?
The Kd was 7 µM.

What about the Kd [2] of the same substance?
Its Kd is 6.9 µM.
